Test results from article PMC8781159, “Implication of Potential Differential Roles of the Two Phosphoglucomutase Isoforms in the Protozoan Parasite Cryptosporidium parvum” (Pathogens, 2021).

Tests used:
[1] = molecular target: T1, CpPGM1B long form (rCpPGM1B-L) (Cryptosporidium parvum, UniProt Q5CTF2); assay: G6PDH-coupled assay, NADH formation at […] nm; assay type: biochemical; conditions: 50 mM Tris-HCl pH 8.5, 1.0 mM MgCl2, 0.2 mM NAD+, 2 mM G1P
T1 construct: gene cgd2_3270; linker plus PGM1 domain; signal peptide (63 nt) removed (full ORF 2013 bp); MBP-fusion (pMAL-c5x), E. coli BL21(DE3), MBP kept
T1 sequence (Q5CTF2 24-670): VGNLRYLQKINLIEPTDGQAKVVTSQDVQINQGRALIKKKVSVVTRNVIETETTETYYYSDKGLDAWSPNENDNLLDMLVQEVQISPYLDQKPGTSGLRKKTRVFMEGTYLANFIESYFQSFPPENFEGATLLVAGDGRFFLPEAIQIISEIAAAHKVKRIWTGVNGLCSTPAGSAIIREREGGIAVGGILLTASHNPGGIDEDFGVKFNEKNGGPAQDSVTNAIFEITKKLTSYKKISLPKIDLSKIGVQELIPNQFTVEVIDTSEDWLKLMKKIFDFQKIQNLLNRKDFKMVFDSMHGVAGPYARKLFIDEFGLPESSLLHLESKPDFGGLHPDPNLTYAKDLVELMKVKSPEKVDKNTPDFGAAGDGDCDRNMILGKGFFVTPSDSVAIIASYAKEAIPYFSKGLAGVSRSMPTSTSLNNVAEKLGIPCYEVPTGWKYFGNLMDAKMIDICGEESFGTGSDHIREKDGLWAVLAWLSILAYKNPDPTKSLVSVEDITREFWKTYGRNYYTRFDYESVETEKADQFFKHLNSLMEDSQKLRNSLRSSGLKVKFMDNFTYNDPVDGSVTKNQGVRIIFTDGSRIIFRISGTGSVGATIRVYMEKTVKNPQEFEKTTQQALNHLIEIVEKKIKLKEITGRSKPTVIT

purified protein = substrate: O=P(O)(O)O[C@H]1O[C@H](CO)[C@@H](O)[C@H](O)[C@H]1O; assay: purified protein; assay type: biochemical, Cryptosporidium parvum; conditions: 50 mM Tris-HCl pH 8.5, 1.0 mM MgCl2, 0.2 mM NAD+

O=P(O)(O)O[C@H]1O[C@H](CO)[C@@H](O)[C@H](O)[C@H]1O [G1P, glucose-1-phosphate]
G6PDH-coupled assay, NADH formation at 340 nm [1]: rCpPGM1A, rCpPGM1B-L and rCpPGM1B-S) displayed activity in converting G1P to G6P

B1: CpPGM1B short form (rCpPGM1B-S) (Cryptosporidium parvum Iowa II) (protein)
chain: LLDMLVQEVQISPYLDQKPGTSGLRKKTRVFMEGTYLANFIESYFQSFPPENFEGATLLVAGDGRFFLPEAIQIISEIAAAHKVKRIWTGVNGLCSTPAGSAIIREREGGIAVGGILLTASHNPGGIDEDFGVKFNEKNGGPAQDSVTNAIFEITKKLTSYKKISLPKIDLSKIGVQELIPNQFTVEVIDTSEDWLKLMKKIFDFQKIQNLLNRKDFKMVFDSMHGVAGPYARKLFIDEFGLPESSLLHLESKPDFGGLHPDPNLTYAKDLVELMKVKSPEKVDKNTPDFGAAGDGDCDRNMILGKGFFVTPSDSVAIIASYAKEAIPYFSKGLAGVSRSMPTSTSLNNVAEKLGIPCYEVPTGWKYFGNLMDAKMIDICGEESFGTGSDHIREKDGLWAVLAWLSILAYKNPDPTKSLVSVEDITREFWKTYGRNYYTRFDYESVETEKADQFFKHLNSLMEDSQKLRNSLRSSGLKVKFMDNFTYNDPVDGSVTKNQGVRIIFTDGSRIIFRISGTGSVGATIRVYMEKTVKNPQEFEKTTQQALNHLIEIVEKKIKLKEITGRSKPTVIT
notes: PGM1 domain only; signal peptide and ~80 aa linker removed (full ORF 2013 bp); MBP-fusion (pMAL-c5x), E. coli BL21(DE3), MBP kept
Km (purified protein): 130 µM

B2: CpPGM1A (rCpPGM1A) (Cryptosporidium parvum) (protein)
chain: MEQVQVTPYLDQKPGTSGLRKKTRVFMEGTYLANFIESYFQSFPPENFEGATLLVAGDGRFFLPEAIQIISEIAAAHKVKRIWTGVNGLCSTPAGSAIIREREGGIAVGGILLTASHNPGGIDEDFGVKFNGKNGGPAQDSVTNTIFEITKKLTSYKKISLPKIDLSKIGVQELIPNQFTVEVIDTSEDWLKLMKKIFDFQKIQNLLNRKDFKMAFDSMHGVAGPYARKLFVDEFGLPESSLLHLESKPDFGGLHPDPNLTYAKDLVELMKVKSPEKVDKSTPDFGAAGDGDCDRNMILGKGFFVTPSDSVAIIASYAKEAIPYFSKGLAGVSRSMPTSTSLNNVAEKLGIPCYEVPTGWKYFGNLMDAKMIDICGEESFGTGSDHIREKDGLWAVLAWLSILAHKNPDPTKPLVSVEDITREFWKTYGRNYYTRFDYESIETEKADQFFKHLNSLMEDHQKLREIIKPYGIDIKLTDNFTYNDPVDKSVAKNQGLRFIFQDNSRVVFRLSGTGSVGATIRIYIEKTVSDQTKVNSTSNEILGDLIEIVEKKIKLKESTGRDRPTVIT
Km (purified protein): 170 µM
